Results on 19 sequences are retold here after the DeepSol protein solubility set.

The data set is described as follows: soluble on expression in E. coli; label from the status in PepcDB or PDB records.
For the sequence “MTTYPADTPIITQPPSPDSPSSSNGSSTSLSENLNNNSVSNQIEYVNQNNNSDNFTVGLGFLGASGNYGNYSSHLNNNLSISQNQSVSLNSSSSSVGAGLTPGNGSVGSTSNSSSAASSIQNIGLNSSLINSNTNNLSSSSHSMSGSNNNNSNNNVVNNYLTVYGNNGSSGGGSGSGGGSGPGADSPRIHCCRPCCPYSHHRRLCDPCYCSNRPESHRDSSSSEEVNDAQSDENTYFQFDFIGVDGHHARRVLPPSWRILRNSKAESSDESSLSDAVQTVDLPKIPQKKIRCVYSIDAEEIEGKKCMLECIRSSCLPRYVECHRRRRCSRKQRCHTTTQPPSPTTESLPTSTTTYEMNTTSLETSTTDISTITSTEEPISTTVKTHEQSSTSGMEFSTMSTTYEPITTTLETSTTDISIITSTEEPDTSTTTESNEQSSTTGMEFSTMSTTYEPITTSLETSTTDMLTNTSTEEPDISTTIEPNAQSTTYEMESSTVSVTYEPETTSLETSSTKVSSTTATGEPASTTMEANEHSSTFETESSTVPATNEPITTSFIPSTTDLSIITSTEEAKISTTMETDELSTTTESSYSTTQFTTFKIPTSSFSTLPMEGTSTKEQTTLSTEETSSATTATIFEKLSTTLFFEETQVTSTSDFTSSPRSIETTRVIEFDTSTELQTTSKTSTTTEDTTTVGTTTEMEMRRFWRLFG”, the “soluble on expression in E. coli” value is on record as “not soluble”.

Turning to “MTTYTTNDFSEIVFGRKSVRVYDETHKISHEEMLTMIQEATTAPSSVNMQPWRFVVVESEAGKEKLKPLIRFNTRQNETSSAMLLIFGDLNCHERGEEIYNQAYASGKMPKEVRDQQLAAIIPHYESLSREQMNDIVKIDASLAAMQFMLVARAHGYETNPIGGFEAEKLAETFGLDQERYVPVMILSVGKGMETGYESVRLAPEKITTFE”, the “soluble on expression in E. coli” value is listed as “not soluble”. In the case of “MTVASLRGRTGTPVPKREVELRATWSSECVTRPMTEEERIKYGVAIPPKITNADGVQERRPILLPKKSKYAHVTKELVLTEFAKGKTAVQIEREQGMKPNTLYARLRAWGIRSPHSPKLRNETAAPPPSSSDTHRTDNRIDDIFWDVQIELRRAMSRFPRFNSAHEGYAVVLEELDEAWQAIKANDLIHARLGNDAGGRDGDPFPARPSDRRKGGGTATMTKAERSKSKRTATERTKLAIAPNPNRCFVLFSSTYLTAGSAIVSLNSLVRQLEKHPADHPIEDIRLDREALLMEILFVPEGGDPHAKHRSGPDQGI”, the “soluble on expression in E. coli” value is given as “not soluble”. In the case of “MTVDPASHITIPEADLARLRHCNHHDPHGFYGWHETEAGSVIRTRQVGATQVNLLIDDTSHVMTPIGDDIFAIDLGHRERADYRLEVTWPDQEPQVKADPYYFLPTVG”, the “soluble on expression in E. coli” value is on record as “not soluble”. To “MTVELKNEYLTVLINEAGAELSSVKSSDGIEYMWQADKTFWGRHAPVLFPIVGRLKDDQYTVAGQAYHMGQHGFARDNDFTVVNQTATQATFELTDSRATREMYPYAFRLRLIYTLTDHELTVNYNVHNPANQELLFSVGGHPAFNVPLADPAGTLADYKITVAPRKVYAHIPLQAPLNDAANADDFDLTKPLALSRDLFKDDALILDLNHHETTLMLDTDLDDHGVAMTIEDAPYVGMWSPYPAEAPFVCLEPWWGIADNVDSDGQLSHKMGINRLAANQTFDAKYAISFFLEHHHHHH” belongs “not soluble”; to “MTVIIKSMETPEEIEGKSFVHWQTWREAYDDLLPAEFQETMTLERCRLFSQKYPENTLIAMDGVKIVGFISYGNCRDETIQAGEIIALYVLKDYYGKGIAQKLVKAALTDLNHFSEIFLWVLKDNKRAIAFYQKMGFTFDGQEKILELGKPIKEKRMVFYSK”, “not soluble”. In the case of “MTVLKLSHWRVLAELADGLPQHVSQLARMADMKPQQLNGFWQQMPAHIRGLLRQHDGYWRLVRPLAVFDAEGLRELGERSGFQTALKHECASSNDEILELARIAPDKAHKTICVTHLQSKGRGRQGRKWSHRLGECLMFSFGWVFDRPQYELGSLSPVAAVACRRALSRLGLDVQIKWPNDLVVGRDKLGGILIETVRTGGKTVAVVGIGINFVLPKEVENAASVQSLFQTASRRGNADAAVLLETLLVELDAVLLQYARDGFAPFVAEYQAANRDHGKAVLLLRDGETVFEGTVKGVDGQGVLHLETAEGKQTVVSGEISLRSDDRPVSVPKRRDSERFLLLDGGNSRLKWAWVENGTFATVGSAPYRDLSPLGAEWAEKADGNVRIVGCAVCGEFKKAQVQEQLARKIEWLPSSAQALGIRNHYRHPEEHGSDRWFNALGSRRFSRNACVVVSCGTAVTVDALTDDGHYLGGTIMPGFHLMKESLAVRTANLNRHAGKRYPFPTTTGNAVASGMMDAVCGSVMMMHGRLKEKTGAGKPVDVIITGGGAAKVAEALPPAFLAENTVRVADNLVIYGLLNMIAAEGREYEHI”, the “soluble on expression in E. coli” value is “not soluble”.

With “MTVNVVVTDMDGTFLDDAKQYDRVRFMAQYQELKKRNIEFVVASGNQYYQLISFFPELKDEISFVAENGALVYEHGKQLFHGELTRHESRIVIGELLKDKQLNFVACGLKSAYVSKNAPETFVALMAKHYHRLQPVNDYHDIDDILFKFSLNLPDEQIPLVIDKLHVSLDGIMKPVTSGFGFIDLIIPGLHKANGISRLLKRWNRSPQNVVAIGDSGNDAEMLKMAHYSFAMGNAADNIKALSRYHTDDNNHQGALNVIQAVLDGTDPF”, the “soluble on expression in E. coli” value is recorded as “not soluble”. On to “MTVQTKTKGLAWQEKPLSDNERLKTESNFLRGTILDDLKDPLTGGFKGDNFQLIRFHGMYEQDDRDIRAERAEAKLEPLKFM”, for which the “soluble on expression in E. coli” value was “not soluble”.

Turning to “MTVTFQNNPVSISGSFPKVGDRLPSFTLCGADLNDLSNEDFKGKKIVMSIFPSIDTPVCSKSVKVLQNALMTRNDTVLLCVSADLPFAMSRFCTEHAVANVTNASFFREPAFTERFGVNLNEGALRGLAARAVIVADEFGVITHSELVNEITNEPDYDRILMSL”, the “soluble on expression in E. coli” value was “not soluble”. To “MTWFIDRRLNGKNKSTVNRQRFLRRYKAQIKQSISEAINKRSVTDVDSGESVSIPTDDISEPMFHQGRGGLRHRVHPGNDHFIQNDRIERPQGGGGGGSGSGQGQASQDGEGQDEFVFQISKDEYLDLLFEDLALPNLKKNQHRQLNEYKTHRAGFTSNGVPANISVVRSLQNSLARRTAMTAGKRRELHALETELETISHSEPAQLLEEERLRREIAELRAKIERVPFIDTFDLRYKNYEKRPEPSSQAVMFCLMDVSGSMDQATKDMAKRFYILLYLFLSRTYKNVEVVYIRHHTQAKEVDEHEFFYSQETGGTIVSSALKLMDEVVKERYDPGQWNIYAAQASDGDNWADDSPLCHEILAKKLLPVVRYYSYIEITRRAHQTLWREYEHLQATFDNFAMQHIRDQEDIYPVFRELFQKQSANQSALEHHHHHH” belongs “soluble”. As for “MTYCLGVKLKDGLVAIADTRITSGTDTTTAKKLFVHESAHGSLFLMTSGLRSVRDKAITYFKEVLKDEHVVYNQLYEAVNAFGNQLRRVAEEDRKALYAAGFAFNLHTIVGGQLKNDEEPKMFLLYPEGNWIELTQTSPFMIIGNSGYGKPILNRTVKYESTLEEVLKAGFLSFDSTRVSANDVDFPLDVVVYYNNSFKMIEHRFEKKDMEIISTTWDNQLKQALDSVPEEWMNVVFDRKNVLLEHHHHHH”, the “soluble on expression in E. coli” value is recorded as “not soluble”. To “MTYVFGPVSSKRLGQSLGVDLLPSKSCTWNCIYCQLGRTTAFVTERREFFPKEEILSEILETVASGKPIDWITFVGSGETTLYKGLDWLIAEVKKISKIPVAVITNGSLLSDPEVRRELLEADAVLPSLNAGSPELFERIDRPAPGFTFEKHVEGLRLFRQEYRGKLWVEVMLIRGVNDSEEALKEMAAVLAEIRPDMIHLVMPTRPAPESFVGIPDEELIQRAVFVLSSSAPVLHPAKGEMNLGSVGNLLDTVAGIASRHPVQERELEAALGKLFDGDAAKIRETMGELLASGRFEKVRQGSELYWIVKSA” belongs “not soluble”. To “MVAIIDASITRFGKRKESLLELAGEVALPLIGKYEIDFVVVSNSYSGEFNSLSGINNLITTYLSVDKVPSIRVDNTSGSGGSAILVAKSLLDSKITKTVLVLGVEKMSEKNTKQVTSVIASLLSPEEKIVGLTLPSLAGLMTKEYMRRYNASREAFALVAVKNHYNGSLNPFAHIQKVVSLEEVLNSPIIADPLTLYEFTPISDGASAIVMVRDEDAYSFTKKPVFI” belongs “not soluble”; to “MVAISEIKSTVDVTAANCLMLLSRVGQENVDGGDQKRVFTCKTCLKQFHSFQALGGHRASHKKPNNDALSSGLMKKVKTSSHPCPICGVEFPMGQALGGHMRRHRNESGAAGGALVTRALLPEPTVTTLKKSSSGKRVACLDLSLGMVDNLNLKLELGRTVY”, “not soluble”; to “MVAKQISKADIHLLRVFCIVVDSQGFSNAQVALNVATSTISRQISELETRLGMRLCDRGRSGFRVTEKGETVYQAAQKLFGALGEFQETVDGSRGRLFGHLALGIIENWASNTSAPIVQALSRFTDLAPDVTIELHSLAPDDIEFAVLDGRVPIGIGVFHSPKPGILYTKVCEERVCLYCGSGHPLFHMTNLEDEERVLRQAQFAKRAYLNEDVVAPKTRNLPSNATAHQMEAIALLILTDKYVGYLPSYFAEEWVAKGRMKIVAGGSFDRPVSVQTATRRGMKLNSVGRTFLDILTAEAVKQGG”, “not soluble”. To “MVALRGKDATSFLARPDPGRPIVLLYGPDAGLVRERADALIAASLDDPKDPFALVRLDGDELSAEPSRLVDEALAIPMFGGRRAIRVRAGSRSFVAGVEALIASPPRECRIVIEAGDIKPDNALRKACEKAATGAVAIGCYPDAEADIARLIDDELRGSNLQIAKDARAVLTTLLGGDRQASRNELRKLALYAHGKGEVTLDDVITCVSDASDLKLDAIVDAAFSGKPVVVETEFAKAMVAGTYPGQIILAAQRHAAFLHKTSLVVEGGTPAAVVLDSGFPRLHFSRKAAAETALRNLSTTRLAQIIEQLASAALETRRQATLGAAIAQRTLLSIAVSARRRSLEHHHHHH” belongs “soluble”; to “MVAPGSVTSRLGSVFPFLLVLVDLQYEGAECGVNADVEKHLELGKKLLAAGQLADALSQFHAAVDGDPDNYIAYYRRATVFLAMGKSKAALPDLTKVIQLKMDFTAARLQRGHLLLKQGKLDEAEDDFKKVLKSNPSENEEKEAQSQLIKSDEMQRLRSQALNAFGSGDYTAAIAFLDKILEVCVWDAELRELRAECFIKEGEPRKAISDLKAASKLKNDNTEAFYKISTLYYQLGDHELSLSEVRECLKLDQDHKRCFAHYKQVKKLNKLIESAEELIRDGRYTDATSKYESVMKTEPSIAEYTVRSKERICHCFSKDEKPVEAIRVCSEVLQMEPDNVNALKDRAEAYLIEEMYDEAIQDYETAQEHNENDQQIREGLEKAQRLLKQSQKRDYYKILGVKRNAKKQEIIKAYRKLALQWHPDNFQNEEEKKKAEKKFIDIAAAKEVLSDPEMRKKFDDGEDPLDAESQQGGGGNPFHRSWNSWQGFNPFSSGGPFRFKFHFN”, “soluble”; to “MVAQQKNLEGYVGFANLPNQVYRKSVKRGFEFTLMVVGESGLGKSTLINSLFLTDLYSPEYPGPSHRIKKTVQVEQSKVLIKEGGVQLLLTIVDTPGFGDAVDNSNCWQPVIDYIDSKFEDYLNAESRVNRRQMPDNRVQCCLYFIAPSGHGLKPLDIEFMKRLHEKVNIIPLIAKADTLTPEECQQFKKQIMKEIQEHKIKIYEFPETDDEEENKLVKKIKDRLPLAVVGSNTIIEVNGKRVRGRQYPWGVAEVENGEHCDFTILRNMLIRTHMQDLKDVTNNVHYENYRSRKLAAVTYNGVDNNKNKGQLTKSPLAQMEEERREHVAKMKKMEMEMEQVFEMKVKEKVQKLKDSEAELQRRHEQMKKNLEAQHKELEEKRRQFEDEKANWEAQQRILEQQNSSRTLEKNKKKGKIF”, “soluble”.
